Laboratory results reported in patent US7387779B2, “Anti-angiogenic proteins and fragments and methods of use thereof” (Beth Israel Deaconess Medical Center, priority 1998, dated 2008).

B1: endostatin: tumor associated angiogenesis inhibitor used as comparator (protein, UniProt P39060 1572-1754, looked up)
Endostatin: HSHRDFQPVLHLVALNSPLSGGMRGIRGADFQCFQQARAVGLAGTFRAFLSSRLQDLYSIVRRADRAAVPIVNLKDELLFPSWEALFSGSEGPLKPGARIFSFDGKDVLRHPTWPQKSVWHGSDPNGRRLTESYCETWRTEAPSATGQASSLLGGRLLGQSAASCHHAYIVLCIENSFMTASK
modifications: Endostatin
B2: Tumstatin: NC1 domain of the α3 chain of type IV collagen, residues 1-244 (SEQ ID NO:10) (protein, listed as Homo sapiens)
chain: GLKGKRGDSGSPATWTTRGFVFTRHSQTTAIPSCPEGTVPLYSGFSFLFVQGNQRAHGQDLGTLGSCLQRFTTMPFLFCNVNDVCNFASRNDYSYWLSTPALMPMNMAPITGRALEPYISRCTVCEGPAIAIAVHSQTTDIPPCPHGWISLWKGFSFIMFTSAGSEGTGQALASPGSCLEEFRASPFLECHGRGTCNYYSNSYSFWLASLNPERMFRKPIPSTVKAGELEKIISRCQVCMKKRH
B3: Tum-1: residues 54 to 244 of Tumstatin, lacking the N-terminal 53 amino acids (SEQ ID NO:22) (protein)
chain: QRAHGQDLGTLGSCLQRFTTMPFLFCNVNDVCNFASRNDYSYWLSTPALMPMNMAPITGRALEPYISRCTVCEGPAIAIAVHSQTTDIPPCPHGWISLWKGFSFIMFTSAGSEGTGQALASPGSCLEEFRASPFLECHGRGTCNYYSNSYSFWLASLNPERMFRKPIPSTVKAGELEKIISRCQVCMKKRH
modifications: Tum-1 (Tumstatin N-53) (amino acids 54-244 of SEQ ID NO10)
B4: Canstatin: NC1 domain of the α2 chain of Type IV collagen (SEQ ID NO:6) (protein, listed as Homo sapiens)
chain: VSIGYLLVKHSQTDQEPMCPVGMNKLWSGYSLLYFEGQEKAHNQDLGLAGSCLARFSTMPFLYCNPGDVCYYASRNDKSYWLSTTAPLPMMPVAEDEIKPYISRCSVCEAPAIAIAVHSQDVSIPHCPAGWRSLWIGYSFLMHTAAGDEGGGQSLVSPGSCLEDFRATPFIECNGGRGTCHYYANKYSFWLTTIPEQSFQGSPSADTLKAGLIRTHISRCQVCMKNL

Key:
MLEC β3+/+ = assay: Protein synthesis and cap-dependent translation in wild-type mouse lung endothelial cells; assay type: cell-based; details: 4.5 μM; rapamycin 100 ng/ml
Text: Therefore, to evaluate the effect of tumstatin peptides on cap-dependent and independent translation, endothelial cells were isolated from lungs of 12-week-old mice that were deficient in the expression of αvβ3 integrin (i.e., 3 integrin-deficient mice), and also their wild-type counterparts (Hodivala-Dilke, K. M. et al., 1999, J. Clin. Invest. 103:229-38). Briefly, ICAM-2 expressing MLEC were enriched using rat anti-mouse ICAM-2 (# 01800D, PharMingen, San Diego, Calif., USA) conjugated to magnetic beads (Dynabeads M-450, Dynal, Oslo, Norway). MLEC were maintained in 40% Ham's F-12,40% DME-Low Glucose, 20% FBS supplemented with heparin, endothelial mitogen (Biomedical Technologies, Inc., Cambridge, Mass., USA), glutamine and penicillin/streptomycin. Wild-type and β3-integrin-deficient mouse embryonic fibroblasts were prepared (Hodivala-Dilke, K. M. et al., 1999, J. Clin. Invest. 103:229-38). MEFs were maintained in DMEM containing 10% FBS. MLEC were characterized for homogeneity by morphological observations and by immunofluorescence staining for endothelial-specific markers. Cells between passage 3 and 6 were used for the experiments.

C-PAE cells = assay: Cell cycle analysis (propidium iodide, flow cytometry); assay type: cell-based, bovine; details: 10% FBS
PC-3 cells = assay: Annexin V-FITC apoptosis assay; assay type: cell-based, human
Experimental: Annexin V-FITC Labeling. In order to establish apoptosis as the potential mode of action for Canstatin, Annexin V-FITC was used to label externalized phosphatidylserine (PS), to assess apoptotic cells. 0.5×10^6 C-PAE cells, PC-3, 786-O and HEK 293 cells were added to each well of a 6 well tissue culture plate in 10% FBS supplemented DMEM (BioWhittaker, Walkersville, Md., USA) overnight. The next day, fresh medium was added to all wells together with 40 ng/ml TNF-α (positive control) or 15 μg/ml Canstatin. Control cells received an equal volume of PBS. After 24 hours of treatment, medium containing detached cells was collected and attached cells were trypsinized and combined with detached cells and centrifuged at 3,000×g. Cells were then washed and phosphatidyl-serine externalization (an early apoptotic indicator) was measured by labeling with FITC-labeled annexin V (Clontech, Palo Alto, Calif., USA) according to the manufacturer's instructions. Annexin V-FITC-labeled cells were counted using a FAC Star Plus flow cytometer (Becton-Dickenson, Waltham, Mass., USA). For each treatment 15,000 cells were counted and stored in listmode. […] Annexin V-FITC labeled cells were counted using a FACStar Plus flow cytometer (Becton-Dickinson, Waltham, Mass., USA). For each treatment, 15,000 cells were counted and stored in listmode.

Molecule | protein synthesis / cap-dependent translation in control (β3+/+) endothelial cells (MLEC β3+/+) | IC50, inhibition of cell cycle progression (C-PAE cells) | apoptosis of PC-3 cells (PC-3 cells)
B1 | did not exhibit this property | no activity | 
B2 | inhibited protein synthesis |  | not observed
B3 |  | about 5 μg/ml | 
B4 |  |  | no significant effect
